Measurements reported in US20210139548A1 (published 2021).
*1 amine or outer side, *2 acyl side, *3 side chain or, on linkers, in order; H or OH if unused. Side-chain parts run from the residue outwards. The star is where a group is joined. C18 diacid = O=C(O)CCCCCCCCCCCCCCCCC(=O)*; γGlu = O=C(O)[C@H](CCC(=O)[*:2])N[*:1]; Isovaleryl = CC(C)CC(=O)*; AEEA = NCCOCCOCC(=O)O

T1: human neuropeptide Y2 receptor (human, UniProt P49146 1-381)
T1 construct: whole, on cells; also called hNPY2 receptor; hNPY2-R
T1 sequence (looked up): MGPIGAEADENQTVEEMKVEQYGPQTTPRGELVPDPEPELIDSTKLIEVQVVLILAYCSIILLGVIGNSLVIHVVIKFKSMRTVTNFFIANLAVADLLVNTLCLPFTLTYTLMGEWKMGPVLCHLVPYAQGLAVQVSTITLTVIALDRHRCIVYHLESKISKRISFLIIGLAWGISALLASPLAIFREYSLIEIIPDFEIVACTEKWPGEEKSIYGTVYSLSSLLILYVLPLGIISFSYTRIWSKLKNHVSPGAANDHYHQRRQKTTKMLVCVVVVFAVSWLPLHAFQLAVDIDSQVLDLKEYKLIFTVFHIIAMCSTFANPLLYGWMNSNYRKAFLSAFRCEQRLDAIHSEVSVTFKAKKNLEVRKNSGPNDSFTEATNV


Each binder was assayed against T1, human neuropeptide Y2 receptor (assay: radioligand competition (125I-PYY(1-36)), hNPY2R membranes).
Outline: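 Commercial human Y2 receptor membranes (0.5 μg protein/well) were incubated with peptide for 2 h at room temperature in 50 mM HEPES, 5 mM MgCl₂, 1 mM CaCl₂, pH 7.4, with 0.2% ovalbumin. Bound radioligand was separated on PEI-soaked GF/C filters and counted by scintillation, and IC₅₀ came from nonlinear sigmoidal regression.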

| Binder | Ki [nM] |
| --- | --- |
| Isovaleryl-APEK([AEEA-AEEA-γGlu-C18 diacid])PEEEASPEELQRYYVALRHYYNWLTRQRY-NH2 (SMILES CC(C)CC(=O)N[C@@H](C)C(=O)N1CCC[C@H]1C(=O)N[C@@H](CCC(=O)O)C(=O)N[C@@H](CCCCNC(=O)COCCOCCNC(=O)COCCOCCNC(=O)CC[C@H](NC(=O)CCCCCCCCCCCCCCCCC(=O)O)C(=O)O)C(=O)N1CCC[C@H]1C(=O)N[C@@H](CCC(=O)O)C(=O)N[C@@H](CCC(=O)O)C(=O)N[C@@H](CCC(=O)O)C(=O)N[C@@H](C)C(=O)N[C@@H](CO)C(=O)N1CCC[C@H]1C(=O)N[C@@H](CCC(=O)O)C(=O)N[C@@H](CCC(=O)O)C(=O)N[C@@H](CC(C)C)C(=O)N[C@@H](CCC(N)=O)C(=O)N[C@@H](CCCNC(=N)N)C(=O)N[C@@H](Cc1ccc(O)cc1)C(=O)N[C@@H](Cc1ccc(O)cc1)C(=O)N[C@H](C(=O)N[C@@H](C)C(=O)N[C@@H](CC(C)C)C(=O)N[C@@H](CCCNC(=N)N)C(=O)N[C@@H](Cc1c[nH]cn1)C(=O)N[C@@H](Cc1ccc(O)cc1)C(=O)N[C@@H](Cc1ccc(O)cc1)C(=O)N[C@@H](CC(N)=O)C(=O)N[C@@H](Cc1c[nH]c2ccccc12)C(=O)N[C@@H](CC(C)C)C(=O)N[C@H](C(=O)N[C@@H](CCCNC(=N)N)C(=O)N[C@@H](CCC(N)=O)C(=O)N[C@@H](CCCNC(=N)N)C(=O)N[C@@H](Cc1ccc(O)cc1)C(N)=O)[C@@H](C)O)C(C)C) [Compound 169] | 2.34 |
| Isovaleryl-APEK([AEEA-AEEA-γGlu-C18 diacid])PEEEASPEELEQYYVSLRHYYNWLTRQRY-NH2 (SMILES CC(C)CC(=O)N[C@@H](C)C(=O)N1CCC[C@H]1C(=O)N[C@@H](CCC(=O)O)C(=O)N[C@@H](CCCCNC(=O)COCCOCCNC(=O)COCCOCCNC(=O)CC[C@H](NC(=O)CCCCCCCCCCCCCCCCC(=O)O)C(=O)O)C(=O)N1CCC[C@H]1C(=O)N[C@@H](CCC(=O)O)C(=O)N[C@@H](CCC(=O)O)C(=O)N[C@@H](CCC(=O)O)C(=O)N[C@@H](C)C(=O)N[C@@H](CO)C(=O)N1CCC[C@H]1C(=O)N[C@@H](CCC(=O)O)C(=O)N[C@@H](CCC(=O)O)C(=O)N[C@@H](CC(C)C)C(=O)N[C@@H](CCC(=O)O)C(=O)N[C@@H](CCC(N)=O)C(=O)N[C@@H](Cc1ccc(O)cc1)C(=O)N[C@@H](Cc1ccc(O)cc1)C(=O)N[C@H](C(=O)N[C@@H](CO)C(=O)N[C@@H](CC(C)C)C(=O)N[C@@H](CCCNC(=N)N)C(=O)N[C@@H](Cc1c[nH]cn1)C(=O)N[C@@H](Cc1ccc(O)cc1)C(=O)N[C@@H](Cc1ccc(O)cc1)C(=O)N[C@@H](CC(N)=O)C(=O)N[C@@H](Cc1c[nH]c2ccccc12)C(=O)N[C@@H](CC(C)C)C(=O)N[C@H](C(=O)N[C@@H](CCCNC(=N)N)C(=O)N[C@@H](CCC(N)=O)C(=O)N[C@@H](CCCNC(=N)N)C(=O)N[C@@H](Cc1ccc(O)cc1)C(N)=O)[C@@H](C)O)C(C)C) [Compound 170] | 12.3 |
| Isovaleryl-APAK([AEEA-AEEA-γGlu-C18 diacid])PEEDASPEELQRYYVELRHYYNWLTRQRY-NH2 (SMILES CC(C)CC(=O)N[C@@H](C)C(=O)N1CCC[C@H]1C(=O)N[C@@H](C)C(=O)N[C@@H](CCCCNC(=O)COCCOCCNC(=O)COCCOCCNC(=O)CC[C@H](NC(=O)CCCCCCCCCCCCCCCCC(=O)O)C(=O)O)C(=O)N1CCC[C@H]1C(=O)N[C@@H](CCC(=O)O)C(=O)N[C@@H](CCC(=O)O)C(=O)N[C@@H](CC(=O)O)C(=O)N[C@@H](C)C(=O)N[C@@H](CO)C(=O)N1CCC[C@H]1C(=O)N[C@@H](CCC(=O)O)C(=O)N[C@@H](CCC(=O)O)C(=O)N[C@@H](CC(C)C)C(=O)N[C@@H](CCC(N)=O)C(=O)N[C@@H](CCCNC(=N)N)C(=O)N[C@@H](Cc1ccc(O)cc1)C(=O)N[C@@H](Cc1ccc(O)cc1)C(=O)N[C@H](C(=O)N[C@@H](CCC(=O)O)C(=O)N[C@@H](CC(C)C)C(=O)N[C@@H](CCCNC(=N)N)C(=O)N[C@@H](Cc1c[nH]cn1)C(=O)N[C@@H](Cc1ccc(O)cc1)C(=O)N[C@@H](Cc1ccc(O)cc1)C(=O)N[C@@H](CC(N)=O)C(=O)N[C@@H](Cc1c[nH]c2ccccc12)C(=O)N[C@@H](CC(C)C)C(=O)N[C@H](C(=O)N[C@@H](CCCNC(=N)N)C(=O)N[C@@H](CCC(N)=O)C(=O)N[C@@H](CCCNC(=N)N)C(=O)N[C@@H](Cc1ccc(O)cc1)C(N)=O)[C@@H](C)O)C(C)C) [Compound 173] | 1.71 |
| Isovaleryl-APAK([AEEA-AEEA-γGlu-C18 diacid])PEEDAEPEELQRYYVSLRHYYNWLTRQRY-NH2 (SMILES CC(C)CC(=O)N[C@@H](C)C(=O)N1CCC[C@H]1C(=O)N[C@@H](C)C(=O)N[C@@H](CCCCNC(=O)COCCOCCNC(=O)COCCOCCNC(=O)CC[C@H](NC(=O)CCCCCCCCCCCCCCCCC(=O)O)C(=O)O)C(=O)N1CCC[C@H]1C(=O)N[C@@H](CCC(=O)O)C(=O)N[C@@H](CCC(=O)O)C(=O)N[C@@H](CC(=O)O)C(=O)N[C@@H](C)C(=O)N[C@@H](CCC(=O)O)C(=O)N1CCC[C@H]1C(=O)N[C@@H](CCC(=O)O)C(=O)N[C@@H](CCC(=O)O)C(=O)N[C@@H](CC(C)C)C(=O)N[C@@H](CCC(N)=O)C(=O)N[C@@H](CCCNC(=N)N)C(=O)N[C@@H](Cc1ccc(O)cc1)C(=O)N[C@@H](Cc1ccc(O)cc1)C(=O)N[C@H](C(=O)N[C@@H](CO)C(=O)N[C@@H](CC(C)C)C(=O)N[C@@H](CCCNC(=N)N)C(=O)N[C@@H](Cc1c[nH]cn1)C(=O)N[C@@H](Cc1ccc(O)cc1)C(=O)N[C@@H](Cc1ccc(O)cc1)C(=O)N[C@@H](CC(N)=O)C(=O)N[C@@H](Cc1c[nH]c2ccccc12)C(=O)N[C@@H](CC(C)C)C(=O)N[C@H](C(=O)N[C@@H](CCCNC(=N)N)C(=O)N[C@@H](CCC(N)=O)C(=O)N[C@@H](CCCNC(=N)N)C(=O)N[C@@H](Cc1ccc(O)cc1)C(N)=O)[C@@H](C)O)C(C)C) [Compound 174] | 3.89 |
| Isovaleryl-APEK([AEEA-AEEA-γGlu-C18 diacid])PEEDASEEELQRYYVSLRHYYNWLTRQRY-NH2 (SMILES CC(C)CC(=O)N[C@@H](C)C(=O)N1CCC[C@H]1C(=O)N[C@@H](CCC(=O)O)C(=O)N[C@@H](CCCCNC(=O)COCCOCCNC(=O)COCCOCCNC(=O)CC[C@H](NC(=O)CCCCCCCCCCCCCCCCC(=O)O)C(=O)O)C(=O)N1CCC[C@H]1C(=O)N[C@@H](CCC(=O)O)C(=O)N[C@@H](CCC(=O)O)C(=O)N[C@@H](CC(=O)O)C(=O)N[C@@H](C)C(=O)N[C@@H](CO)C(=O)N[C@@H](CCC(=O)O)C(=O)N[C@@H](CCC(=O)O)C(=O)N[C@@H](CCC(=O)O)C(=O)N[C@@H](CC(C)C)C(=O)N[C@@H](CCC(N)=O)C(=O)N[C@@H](CCCNC(=N)N)C(=O)N[C@@H](Cc1ccc(O)cc1)C(=O)N[C@@H](Cc1ccc(O)cc1)C(=O)N[C@H](C(=O)N[C@@H](CO)C(=O)N[C@@H](CC(C)C)C(=O)N[C@@H](CCCNC(=N)N)C(=O)N[C@@H](Cc1c[nH]cn1)C(=O)N[C@@H](Cc1ccc(O)cc1)C(=O)N[C@@H](Cc1ccc(O)cc1)C(=O)N[C@@H](CC(N)=O)C(=O)N[C@@H](Cc1c[nH]c2ccccc12)C(=O)N[C@@H](CC(C)C)C(=O)N[C@H](C(=O)N[C@@H](CCCNC(=N)N)C(=O)N[C@@H](CCC(N)=O)C(=O)N[C@@H](CCCNC(=N)N)C(=O)N[C@@H](Cc1ccc(O)cc1)C(N)=O)[C@@H](C)O)C(C)C) [Compound 176] | 3.05 |
| Isovaleryl-APEK([AEEA-AEEA-γGlu-C18 diacid])PEEDSSPEELQRYYVELRHYYNWLTRQRY-NH2 (SMILES CC(C)CC(=O)N[C@@H](C)C(=O)N1CCC[C@H]1C(=O)N[C@@H](CCC(=O)O)C(=O)N[C@@H](CCCCNC(=O)COCCOCCNC(=O)COCCOCCNC(=O)CC[C@H](NC(=O)CCCCCCCCCCCCCCCCC(=O)O)C(=O)O)C(=O)N1CCC[C@H]1C(=O)N[C@@H](CCC(=O)O)C(=O)N[C@@H](CCC(=O)O)C(=O)N[C@@H](CC(=O)O)C(=O)N[C@@H](CO)C(=O)N[C@@H](CO)C(=O)N1CCC[C@H]1C(=O)N[C@@H](CCC(=O)O)C(=O)N[C@@H](CCC(=O)O)C(=O)N[C@@H](CC(C)C)C(=O)N[C@@H](CCC(N)=O)C(=O)N[C@@H](CCCNC(=N)N)C(=O)N[C@@H](Cc1ccc(O)cc1)C(=O)N[C@@H](Cc1ccc(O)cc1)C(=O)N[C@H](C(=O)N[C@@H](CCC(=O)O)C(=O)N[C@@H](CC(C)C)C(=O)N[C@@H](CCCNC(=N)N)C(=O)N[C@@H](Cc1c[nH]cn1)C(=O)N[C@@H](Cc1ccc(O)cc1)C(=O)N[C@@H](Cc1ccc(O)cc1)C(=O)N[C@@H](CC(N)=O)C(=O)N[C@@H](Cc1c[nH]c2ccccc12)C(=O)N[C@@H](CC(C)C)C(=O)N[C@H](C(=O)N[C@@H](CCCNC(=N)N)C(=O)N[C@@H](CCC(N)=O)C(=O)N[C@@H](CCCNC(=N)N)C(=O)N[C@@H](Cc1ccc(O)cc1)C(N)=O)[C@@H](C)O)C(C)C) [Compound 177] | 2.55 |
